According to IntAct's records for PubMed 10373560:

B1: Membrane-associated tyrosine- and threonine-specific cdc2-inhibitory kinase (Homo sapiens), Q99640 (parent)
chain: MLERPPALAMPMPTEGTPPPLSGTPIPVPAYFRHAEPGFSLKRPRGLSRSLPPPPPAKGSIPISRLFPPRTPGWHQLQPRRVSFRGEASETLQSPGYDPSRPESFFQQSFQRLSRLGHGSYGEVFKVRSKEDGRLYAVKRSMSPFRGPKDRARKLAEVGSHEKVGQHPCCVRLEQAWEEGGILYLQTELCGPSLQQHCEAWGASLPEAQVWGYLRDTLLALAHLHSQGLVHLDVKPANIFLGPRGRCKLGDFGLLVELGTAGAGEVQEGDPRYMAPELLQGSYGTAADVFSLGLTILEVACNMELPHGGEGWQQLRQGYLPPEFTAGLSSELRSVLVMMLEPDPKLRATAEALLALPVLRQPRAWGVLWCMAAEALSRGWALWQALLALLCWLWHGLAHPASWLQPLGPPATPPGSPPCSLLLDSSLSSNWDDDSLGPSLSPEAVLARTVGSTSTPRSRCTPRDALDLSDINSEPPRGSFPSFEPRNLLSLFEDTLDPT

Variants of: B1
Settings: with ccnb1_human CCNB1, P14635
Chain of ccnb1_human CCNB1, P14635 (P14635 whole entry): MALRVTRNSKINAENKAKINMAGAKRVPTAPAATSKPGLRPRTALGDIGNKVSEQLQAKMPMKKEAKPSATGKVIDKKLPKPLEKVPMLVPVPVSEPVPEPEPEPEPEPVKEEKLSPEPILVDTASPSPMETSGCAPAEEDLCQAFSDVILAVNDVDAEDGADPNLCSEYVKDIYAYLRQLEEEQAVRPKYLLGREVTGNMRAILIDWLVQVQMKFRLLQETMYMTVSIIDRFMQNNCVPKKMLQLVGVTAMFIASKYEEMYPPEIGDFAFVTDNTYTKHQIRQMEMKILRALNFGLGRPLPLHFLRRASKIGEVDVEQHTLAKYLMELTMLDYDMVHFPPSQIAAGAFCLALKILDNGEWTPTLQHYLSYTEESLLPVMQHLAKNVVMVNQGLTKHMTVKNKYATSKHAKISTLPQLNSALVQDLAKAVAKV

Variant | effect of a mutation on the interaction
MLERPPALAMPMPTEGTPPPLSGTPIPVPAYFRHAEPGFSLKRPRGLSRSLPPPPPAKGSIPISRLFPPRTPGWHQLQPRRVSFRGEASETLQSPGYDPSRPESFFQQSFQRLSRLGHGSYGEVFKVRSKEDGRLYAVKRSMSPFRGPKDRARKLAEVGSHEKVGQHPCCVRLEQAWEEGGILYLQTELCGPSLQQHCEAWGASLPEAQVWGYLRDTLLALAHLHSQGLVHLDVKPANIFLGPRGRCKLGDFGLLVELGTAGAGEVQEGDPRYMAPELLQGSYGTAADVFSLGLTILEVACNMELPHGGEGWQQLRQGYLPPEFTAGLSSELRSVLVMMLEPDPKLRATAEALLALPVLRQPRAWGVLWCMAAEALSRGWALWQALLALLCWLWHGLAHPASWLQPLGPPATPPGSPPCSLLLDSSLSSNWDDDSLGPSLSPEAVLARTVGSTSTPRSRCTPRDALDLSDINSEPPRGSFPSFEPAAALSLFEDTLDPT [R486A;N487A;L488A] | decreasing interaction
